Source: patent US9051358B2, “Nonnatural collagen-like protein and use thereof” (ZHEJIANG UNIVERSITY, priority 2009, dated 2015)

B1: rGLK1164/G-CSF: fusion protein of GLK1164 and hG-CSF (SEQ ID NO: 6) (protein)
chain: GPPGEQGKPGNQGEPGNPGSPGQPGNPGQPGSPGNPGQPGNEGPQGSQGNPGQPGEPGSNGQPGQPGQNGKNGQPGSPGSQGSPGNQGSPGNQGQPGNKGEQGKPGNQGPAGEQGKPGNQGEPGNPGSPGQPGNPGQPGSPGNPGQPGNEGPQGSQGNPGQPGEPGSNGQPGQPGQNGKNGQPGSPGSQGSPGNQGSPGNQGQPGNKGEQGKPGNQGPAGEQGKPGNQGEPGNPGSPGQPGNPGQPGSPGNPGQPGNEGPQGSQGNPGQPGEPGSNGQPGQPGQNGKNGQPGSPGSQGSPGNQGSPGNQGQPGNKGEQGKPGNQGPAGEQGKPGNQGEPGNPGSPGQPGNPGQPGSPGNPGQPGNEGPQGSQGNPGQPGEPGSNGQPGQPGQNGKNGQPGSPGSQGSPGNQGSPGNQGQPGNKGEQGKPGNQGPAGGSGGTPLGPASSLPQSFLLKCLEQVRKIQGDGAALQEKLCATYKLCHPEELVLLGHSLGIPWAPLSSCPSQALQLAGCLSQLHSGLFLYQGLLQALEGISPELGPTLDTLQLDVADFATTIWQQMEELGMAPALQPTQGAMPAFASAFQRRAGGVLVASHLQSFLEVSYRVLRHLAQP
modifications: rGLK116 tetramer/G-CSF
B2: rGLK420/G-CSF: fusion protein of GLK420 and G-CSF (SEQ ID NO: 10) (protein)
chain: GPPGEDGDKGEIGEPGQKGSKGDKGEQGPPGPTGPQGPIGQPGPSGADGEPGPRGQQGLFGQKGDEGPRGFPGPPGPVGLQGLPGPPGEKGETGDVGQMGPPGPPGPRGPSGAPGADGPQGPPGGIGNPGAVGEKGEPGEAGEPGLPGEGGPPGPKGERGEKGESGPSGAAGPPGPKGPPGDDGPKGSPGPVGFPGDPGPPGEPGPAGQDGPPGDKGDDGEPGQTGSPGPTGEPGPSGPPGKRGPPGPAGPEGRQGEKGAKGEAGLEGPPGKTGPIGPQGAPGKPGPDGLRGIPGPVGEQGLPGSPGPDGPPGPMGPPGLPGLKGDSGPKGEKGHPGLIGLIGPPGEQGEKGDRGLPGPQGSSGPKGEQGITGPSGPIGPPGPPGLPGPPGPKGAKGSSGPTGPKGEAGHPGPPGPPGPPTPLGPASSLPQSFLLKCLEQVRKIQGDGAALQEKLCATYKLCHPEELVLLGHSLGIPWAPLSSCPSQALQLAGCLSQLHSGLFLYQGLLQALEGISPELGPTLDTLQLDVADFATTIWQQMEELGMAPALQPTQGAMPAFASAFQRRAGGVLVASHLQSFLEVSYRVLRHLAQP
modifications: GLK420/G-CSF, fusion protein
B3: rhG-CSF: rhG-CSF (Filgrastim, Amgen, USA) (protein, UniProt P09919 31-207, looked up)
Granulocyte …: TPLGPASSLPQSFLLKCLEQVRKIQGDGAALQEKLVSECATYKLCHPEELVLLGHSLGIPWAPLSSCPSQALQLAGCLSQLHSGLFLYQGLLQALEGISPELGPTLDTLQLDVADFATTIWQQMEELGMAPALQPTQGAMPAFASAFQRRAGGVLVASHLQSFLEVSYRVLRHLAQP
modifications: filgrastim, N-terminal Met

Tests used:
[1] = Pharmacokinetics of G-CSF proteins in SD rats (ELISA); format: in vivo; settings: for Half-life: SD rats; for detectability in blood after subcutaneous injection: blood concentration-time curve
Excerpt: (§1) The pharmacokinetic parameters and pharmacodynamic properties of rhG-CSF (Filgrastim, Amgen, USA), rHSA/G-CSF (prepared according to U.S. Pat. No. 5,876,969), rGLK1164/G-CSF and rGLK1164 in SD rats were compared.
(§2) Adult SPF SD rats (approximately 300-350 g) from the Center of Experimental Animals of Chinese Academy of Sciences in Shanghai were divided into 8 groups and administered according to Table 3. Blood samples were collected from the caudal veins of rats. The number of white blood cells were counted, and serum was saved at −20° C. after separated by centrifugation (3000rpm for 5 minutes).
The plasma concentration detection of rhG-CSF, rGLK1164/G-CSF and rHSA/G-CSF was carried out using ELISA (for the specific operations, refer to the operating manual of Human G-CSF DuoSet kit Human G-CSF ELISA Construction Kit (ANTIGENIX)). The MicroCal Origin software was used to draw standard curve according to four-parameter logistic fitting method, and calculate related statistical parameters by regression analysis. The 3P87 software was used to calculate the PK parameters.
GLK/G-CSFs with different structures were prepared in a similar way, and their activity, half-life in SD rats and other relevant parameters were compared.

[2] = system: white blood cells; experiment: Pharmacodynamic study, number of white blood cells in SD rats; format: in vivo
Excerpt: as §1, §2

[3] = Immunogenicity study in mice, serum antibody detection by ELISA; format: in vivo, Balc/C mice; settings: sc once a week, 2.5 nmol
Procedure: Balc/C mice (n=12) with a average weight of about 25 g were evenly divided into 4 groups. 2.5 nmol rGLK1164, 2.5 nmol rGLK1164/G-CSF, and the same volume of saline were administered to a corresponding group respectively by subcutaneous injection once a week. Serum samples were collected in week 4 and week 9(a week after the eighth immunization) and were saved separately at −70° C.
rGLK1164 or G-CSF was diluted with 0.2M carbonate buffer (pH9.6) to 1 μg/ml. Each well of the ELISA microplate was filled with 100 μl dilution and coated overnight at 4° C., and then the wells were washed with PBST for 3 times(5 minutes each time). The washed wells were sealed by 5% nonfat dry milk for 1 hour, and then washed three times with PBST (5 minutes each time). The preserved serum of each group was added to the well at a rate of 1:50,1:200,1:800, and then the microplate was incubated at 37° C. for 1 hour, and for one increased hour after the secondary antibody, HRP-conjugated goat anti-mouse antibody was added. After the microplate was shook to dry and washed by PBST, it was colored with TMB-HCL and detected under the illumination of 450 nm. Meanwhile, 200 ng/ml of rabbit anti-human G-CSF antibody was used as a positive control.

[4] = system: G-CSF-dependent cell line NFS60; experiment: In vitro bioactivity in G-CSF-dependent cell line NFS60 by MTT assay; format: cell-based; settings: for Bioactivity (IU/mg): Table 4; for Relative activity (in molar basis)(%): relative to G-CSF
Procedure: In vitro bioactivity of the rGLK1164/G-CSF fusion protein was measured in G-CSF-dependent cell line NFS60 by MTT assay (Chinese Pharmacopoeia, 2005 edition, three sections).

[5] = In vitro stability, shock at 40° C., SEC-HPLC analysis; format: physicochemical; settings: for Purity (%) (SEC-HPLC analysis): 1 mg/ml in 20 mM PB pH6.0, 40° C.; for protein content after incubation (%): 40° C.; for in vitro stability (aggregates, total protein content): shock 48 hours at 40° C.
Procedure: Reference rhG-CSF and rGLK1164/G-CSF were dissolved in 20 mM PB, pH6.0 to the protein concentration of 1 mg/ml. samples were sterile filtered and distributed to penicillin bottles. […]

Row | Molecule | Half-life [1] | terminal half-life ([1]; administered subcutaneously in rats) | detectability in blood after subcutaneous injection [1] | number of white blood cells ([2]; 48 hours after an injection) | extent and duration of white blood cell increase versus rHSA/G-CSF ([2]; same dosage) | serum anti-G-CSF antibody ([3]; plate coated by G-CSF) | serum anti-rGLK1164 antibody ([3]; plate coated by rGLK1164) | in vitro activity [4] | Bioactivity (IU/mg) [4] | Relative activity (in molar basis)(%) [4] | Purity (%) (SEC-HPLC analysis) ([5]; 0 h) | protein content after incubation (%) ([5]; 0 h) | Purity (%) (SEC-HPLC analysis) ([5]; 24 h) | protein content after incubation (%) ([5]; 24 h) | Purity (%) (SEC-HPLC analysis) ([5]; 48 h) | protein content after incubation (%) ([5]; 48 h) | in vitro stability (aggregates, total protein content) [5]
1 | B1 | >7 h | 10 h | could still be detected at 72 hours | increased significantly | no significant difference | anti-G-CSF antibody is produced | no anti-rGLK1164 antibody produced | about 3.3×10^7 IU/mg | 0.33 × 10^8 IU/mg | 146% | 99.5% | 100% | 98.7% | 97.8% | 97.5% | 96.7% | changed little
2 | B2 | >7 h | – | – | – | – | – | – | – | 0.28 × 10^8 IU/mg | 129% | – | – | – | – | – | – | –
3 | B3 | 1.7 h | – | couldn't be detected 24 hours later | – | – | – | – | – | 0.7 × 10^8 IU/mg | 100% | 99.8% | 100% | 94.3% | 91.2% | 85.2% | 68.9% | a large number of polymeric aggregates were formed and the total protein content was also decreased significantly
